Molecular target: Fas receptor (Fas, CD95) on human T cells (human) (UniProt P25445)
Assay: cell-based or functional assay

UniProt P25445, sequence (P25445 26-335): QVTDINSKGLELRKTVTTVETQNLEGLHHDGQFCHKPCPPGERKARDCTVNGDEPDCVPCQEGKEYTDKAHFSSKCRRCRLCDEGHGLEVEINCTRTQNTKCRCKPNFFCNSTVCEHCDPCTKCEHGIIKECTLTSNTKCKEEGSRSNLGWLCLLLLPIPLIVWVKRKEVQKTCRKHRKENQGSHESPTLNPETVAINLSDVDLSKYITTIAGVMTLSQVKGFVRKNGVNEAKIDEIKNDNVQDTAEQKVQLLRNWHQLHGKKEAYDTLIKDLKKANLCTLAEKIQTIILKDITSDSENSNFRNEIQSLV

“recombinant human FasL (BioLegend) (from UniProt P48023 134-281) (ligand)” was tested, and the cell survival rate (Annexin V- & DAPI-) after about 16 h of 100 ng/mL FasL, SPPL3-KO Jurkat T cells was 63.1%, the cell survival rate (Annexin V- & DAPI-) after about 16 h of 100 ng/mL FasL, control (NT-KO) Jurkat T cells was 25.7% and the cell survival rate of the Cas9+ sgRNA-iBAR Jurkat T cell library after the first round of 10 ng/ml FasL was 4%. The cell survival rate of the Cas9+ sgRNA-iBAR Jurkat T cell library after the second round of 10 ng/ml FasL was 44.8%, the cell survival rate of the Cas9+ sgRNA-iBAR Jurkat T cell library after the third round of 10 ng/ml FasL was 55.5% and the share of CTV-labeled SPPL3-KO primary T cells in a 1:1 mix with CFSE-labeled NT-KO primary T cells after 16 h of 500 ng/mL FasL (49.2% without FasL) was 75.3%.

Reference: patent publication US20260048120A1
